We go through five proteins from publication doi:10.1101/431494, “Conservation of the structural and functional architecture of encapsulated ferritins in bacteria and archaea” (bioRxiv, 2018).

Series [1] deals with the molecule itself. As to the kind of experiment: SEC; analytical size-exclusion chromatography, Superdex 200 16/60, 50 mM Tris-HCl pH 8.0, 150 mM NaCl, calibrated with standards of known molecular weight. (In general: SEC sorts molecules by how far they enter the pores of the column.)
Series [2] concerns the molecule itself. Nature of the series: SDS-PAGE (resistance of oligomers to SDS and heat denaturation); SDS-PAGE of the size-exclusion peak fractions.
Series [3] deals with the molecule itself. As to the kind of experiment: crystal structure; sitting drop vapour diffusion; Hoch_EncFtn in 0.2 M NaCl, 0.1 M Bis-Tris pH 5.5, 20 % PEG 3350; Pfc_EncFtn in 0.2 M LiSO4, 20 % PEG 3350; molecular replacement with PDB 5DA5.
Series [4] concerns the molecule itself. As to the kind of experiment: native MS; nano-ESI, 100 mM ammonium acetate pH 8.0, ~5 uM (oligomer concentration).

Several values for one entry are separate records, joined by “and”; a condition that tells them apart may be missing. Identical values can stand only once.

By stoichiometry N is commonly meant the number of molecules, sites or subunits per partner or assembly.

B1: Pyrococcus furiosus encapsulated ferritin domain, residues 1-99, C-terminal StrepII-tagged variant (domain or fragment, UniProt Q8U1L4 1-99, looked up)
chain: MLSINPTLINRDKPYTKEELMEILRLAIIAELDAINLYEQMARYSEDENVRKILLDVAREEKAHVGEFMALLLNLDPEQVTELKGGFEEVKELTGIEAH
notes: EncFtn domain (residues 1-99) of the single contiguous EncFtn-encapsulin polypeptide of Pyrococcus furiosus; locus tag printed as Pfc_01575, Pfc_05157 and Pfc_05175; source: E. coli BL21(DE3), purified (Strep-Trap HP); not shown: StrepII, C-terminal, kept
Take B1: the “stoichiometry N” value is 10 and ~20 in series [1]; 2 in series [2].

B2: Pyrococcus furiosus encapsulated ferritin domain as crystallised (PDB 5N5E) (domain or fragment, UniProt Q8U1L4 1-99, looked up)
chain: B1 chain
notes: EncFtn domain (residues 1-99) of the single contiguous EncFtn-encapsulin polypeptide of Pyrococcus furiosus; electron density visible for residues 2-98 in each chain; source: E. coli BL21(DE3), purified; copies: 10
On to B2, for which, in series [3], the “stoichiometry N” value was determined as 10.

B3: Pyrococcus furiosus encapsulated ferritin domain, residues 1-99, C-terminal hexahistidine tagged variant (domain or fragment, UniProt Q8U1L4 1-99, looked up)
chain: B1 chain
notes: EncFtn domain (residues 1-99) of the single contiguous EncFtn-encapsulin polypeptide of Pyrococcus furiosus; locus tag printed as Pfc_01575, Pfc_05157 and Pfc_05175; source: E. coli BL21(DE3), purified (HisTrap FF, S200 size-exclusion chromatography); not shown: His6, C-terminal, kept
Consider B3, for which the entries for the “stoichiometry N” value in series [1] and in series [4] were approximately 10 and 10, respectively.

B4: Rhodospirillum rubrum encapsulated ferritin, hexahistidine-tagged variant (natural protein, UniProt Q2RVS1 1-140, looked up)
chain: MAQSSNSTHEPLEVLKEETVNRHRAIVSVMEELEAVDWYDQRVDASTDPELTAILAHNRDEEKEHAAMTLEWLRRNDAKWAEHLRTYLFTEGPITAIEAADTAGEGSGGDAAKGATAQGDGSLGIGSLKGEAALARPPRL
Turning to B4, the “stoichiometry N” value in series [4] turned out to be 10.

B5: Rhodospirillum rubrum encapsulated ferritin, Strep-tagged variant (natural protein, UniProt Q2RVS1 1-140, looked up)
chain: B4 chain
notes: source: recombinant, purified by Strep-Trap column HP
Consider B5, for which the “stoichiometry N” value in series [1] came out at 10.
